Data: patent publication US20190016825A1

Legend:
biotin-PCSK9-his [1] = target: biotin-PCSK9-his (UniProt Q8NBP7); test: competitive ELISA, one antibody coated, biotin-PCSK9-his plus 50-fold competitor; competitor: 21B12
biotin-PCSK9-his [2] = target: biotin-PCSK9-his (UniProt Q8NBP7); test: competitive ELISA, one antibody coated, biotin-PCSK9-his plus 50-fold competitor; competitor: h001-4

IR (%) (biotin-PCSK9-his [1]): 97.8%
IR (%) (biotin-PCSK9-his [2]): 3.86%
Substance: 21B12 (U.S. Pat. No. 8,030,457B2) (antibody)
